Experiment [1] has as its system CBCA production. The experiment in a line: In vivo TS activity assay, Example 4 CBCAS enzymes with and without signal peptides, no pH adjustment. In kind it is cell-based. Conditions: strains with (Y) or without (N) N-terminal and C-terminal signal peptides; no pH adjustment at Day 4; S. cerevisiae. A digest of the protocol:
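S. cerevisiae CEN.PK strains co-expressing a prenyltransferase and CBCAS variants, with or without MFalpha2/HDEL signal peptides, were grown in YEP galactose at 20 °C for 4 days with daily 1 mM olivetolic acid and galactose feeds. No pH 5.5 citrate step was applied. CBCA was quantified by LC-MS in methanol extracts.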

Experiment [2] relates to CBCA, THCA, and CBDA production. The experiment is described as follows: In vivo TS activity assay, Example 1 CBCAS library screen, cultures fed olivetolic acid, LC-MS. The format is cell-based, S. cerevisiae. The conditions noted are these: primary and secondary screen. The text has this: To identify CBCAS genes that can be functionally expressed in host cells, a library of approximately 3000 candidate CBCAS genes was designed based on internal codebases and domain knowledge, sampled across enzyme families, ecological niches, and structural homologies. Protein sequences were recoded in silico for expression in S. cerevisiae and synthesized in the integrative yeast expression vector shown in FIG. 5. Each candidate enzyme expression construct was transformed into an S. cerevisiae CEN.PK strain that also expressed a prenyltransferase enzyme capable of catalyzing reaction R^4 in FIG. 2. Strain t616313, expressing GFP, was included in the library screen as a negative control for enzyme activity. […]
An assay to detect TS activity was conducted as follows: each thawed glycerol stock of candidate CBCAS transformants was stamped into a well of YEP+4% dextrose media. […] Optical measurements were taken on a plate reader, with absorbance measured at 600 nm and fluorescence at 528 nm with 485 nm excitation. […] CBCA, THCA, and CBDA production in the samples was quantified via liquid chromatography-mass spectrometry (LC-MS). […]

B1: t861585 (protein)
chain: MGNTTSIAGRDCLVSALGGNAGLVAFQNQPLYQTTAVHEYNLNIPVTPAAITYPETAEQIAAVVKCASQYDYKVQARSGGHSFGNYGLGGTDGAVVVDMKYFNQFSMDDQTYEAVIGPGTTLGDVDVELYNNGKRAMAHGVCPTISTGGHFTMGGLGPTARQWGLALDHVEEVEVVLANSSIVRASNTQNQEVFFAVKGAAASFGIVTEFKVRTQPAPGIAVQYSYTFNLGSSAEKAQFIKDWQSFVSAKNLTRQFYTNMVIFDGDIILEGLFFGSKEQYEALRLEERFVPKNPGNILVLTDWLGMVGHALEDTILRLVGNTPTWFYAKSLGFTPDTLIPSSGIDEFFKYIENNKAGTSTWFVTLSLEGGAINDVPADATAYGHRDVLFWVQIFMVSPTGPVSSTTYDFADGLYNVLTKAVPESEGHAYLGCPDPKMANAQQKYWRQNLPRLEELKETLDPKDTFHNPQGILPA
modifications: N- and C-terminal signal peptides
As to B1, in experiment [1], the “Average CBCA” value was determined as 39673.45 µg/L.

B2: t861561 (protein)
chain: MGNTTSIAAGRDCLISAVGGNAAHVAFQDQLLYQATAVDVYNLNIPVTPAAVTYPQSADEVAAVVKCASEYDYKVQARSGGHSFGNYGLGGQNGAIVVDMKHFSQFSMDESTYTATIGPGITLGDLDTELYNAGHRAMAHGICPTIRTGGHLTIGGLGPTARQWGLALDHVEEVEVVLANSSIVRASETQNQDVLFAVKGAAASFGIVTEFKVRTEQAPGLAVQYSYTFNLGTPAEKAKLLKDWQAFIAQEDLTWKFYSNMVIFDGQIILEGIFFGSKEEYDALDLEKRFPTSEPGTLLVLTDWLGMVGHSLEDVILRLVGNTPTWFYAKSLGFTPRTLIPDSAIDRFFDYIHETNAGTLAWFVTLSLEGGAINAVPEDATAYGHRDVLFWVQIFMVNPLGPISQTIYDFADGLYDVLAQAVPESAEHAYLGCPDPKMPDAQRAYWRGNLPRLEELKGEFDPKDTFHNPQGVSVAV
As for B2, the “Average CBCA” value in experiment [1] was determined as 46161.25 µg/L.

B3: putative C. sativa CBCAS enzyme: previously disclosed putative C. sativa CBCAS (SEQ ID NO: 15) (protein)
chain: MNCSTFSFWFVCKIIFFFLSFNIQISIANPQENFLKCFSEYIPNNPANPKFIYTQHDQLYMSVLNSTIQNLRFTSDTTPKPLVIVTPSNVSHIQASILCSKKVGLQIRTRSGGHDAEGLSYISQVPFAIVDLRNMHTVKVDIHSQTAWVEAGATLGEVYYWINEMNENFSFPGGYCPTVGVGGHFSGGGYGALMRNYGLAADNIIDAHLVNVDGKVLDRKSMGEDLFWAIRGGGGENFGIIAACKIKLVVVPSKATIFSVKKNMEIHGLVKLFNKWQNIAYKYDKDLMLTTHFRTRNITDNHGKNKTTVHGYFSSIFLGGVDSLVDLMNKSFPELGIKKTDCKELSWIDTTIFYSGVVNYNTANFKKEILLDRSAGKKTAFSIKLDYVKKLIPETAMVKILEKLYEEEVGVGMYVLYPYGGIMDEISESAIPFPHRAGIMYELWYTATWEKQEDNEKHINWVRSVYNFTTPYVSQNPRLAYLNYRDLDLGKTNPESPNNYTQARIWGEKYFGKNFNRLVKVKTKADPNNFFRNEQSIPPLPPRHH
In the case of B3, in experiment [2], the “CBCAS activity / CBCA production” value was “not found to be active”.

For the origin of these results see patent US20230137139A1, “BIOSYNTHESIS OF CANNABINOIDS AND C[…]” (priority 2020, published 2023).
